From article PMC3360023, “Identification and Characterisation of a Novel Acylpeptide Hydrolase from Sulfolobus Solfataricus: Structural and Functional Insights” (PLoS ONE, 2012) come the findings set out here.

Data set [1] has as its target APEH-3Ss, acylpeptide hydrolase from Sulfolobus solfataricus coded by the gene sso2693 (Sulfolobus solfataricus P2). Briefly: SEC; gel filtration of the native purified enzyme on two columns (Superdex 200 HR 10/30; Superose 12 PC 3.2/30), calibrated with BioRad gel filtration standards.
Data set [2] has the same target. Put plainly: SEC; Superose 12 3.2/30; enzyme treated with 0.5 M GnHCl, column equilibrated with Tris-HCl 0.05 M pH 7.5 containing 0.5 M GnHCl.
The target is the same in data set [3]. Put plainly: SEC; Superose 12 3.2/30; enzyme treated with 0.5 M GnHCl, then dialysed extensively against Tris-HCl 0.05 M pH 7.5 before gel filtration.
Substrate in data set [4]: CC(=O)N[C@@H](CC(C)C)C(=O)Nc1ccc([N+](=O)[O-])cc1
Briefly: purified protein. The data set is classed as biochemical, Saccharolobus solfataricus. The note with it: 25 mM Tris-HCl pH 7.5, 90°C.

Substrate in data set [5]: CC(=O)N[C@@H](C)C(=O)Nc1ccc([N+](=O)[O-])cc1
Briefly: purified protein. The data set is classed as biochemical, Saccharolobus solfataricus. The note with it: 25 mM Tris-HCl pH 7.5, 90°C.

Substrate in data set [6]: CC(=O)N[C@@H](Cc1ccccc1)C(=O)Nc1ccc([N+](=O)[O-])cc1
Put plainly: purified protein. The data set is classed as biochemical, Saccharolobus solfataricus. The note with it: 25 mM Tris-HCl pH 7.5, 90°C.

The target in data set [7] is APEH-3Ss, acylpeptide hydrolase from Sulfolobus solfataricus coded by the gene sso2693 (Sulfolobus solfataricus P2).

The term stoichiometry N denotes a count of units in the complex or per binding partner. In the case of “APEH-3Ss, acylpeptide hydrolase from Sulfolobus solfataricus coded by the gene sso2693 (enzyme)”, the stoichiometry N was determined as 3 in data set [1], 2 in data set [2] and 3 in data set [3].

B1: APEH-3Ss (Saccharolobus solfataricus P2) (protein)
chain: MKPEDYYYSIKLVPEITIENGKLFHVETWIEEDKYKSSIYLNLKRITFQGNESSPKFNNDKLYFIRNEEAKSSLLEAQLYGEPKVIFTFSGKISKYEFHNKGILVIAEENTDKTLPFRAEKIKYRFDSRGLLRARQSLYLFDGKDLRRLVTGNFDVTDLATNGNRVVISATKDGDDYGLGNLYEVNIETGELNRITKEDGTVQAIAMNSEGKIAFLGHRKGLTPWASLEIMLPEEGKSYMCGKTCGNKVLTDLFDGVKDRIVFEKDLILSLGQEGGTSHIYQISDNKVDKVTSGNIMVRGFDYSNSELAYFYSTPEKPVILKYRDIEYDPNPNIKGYTPERITVNSNGVEVEGWSIIKDPNAPTILFIHGGPHMAYGYGYFIEFQFFVDNGFNVIYANPRGSQGYGEEFAKACVGDWGGKDFEDLMNFVNTVKERYSLKGKFGITGGSYGGFMTNWIVTKTSMFSAAISERSISNLVSMCGTSDIGFWFNAIESGIADPWSTEGIEKLMKMSPIYYVKNVKTPTMLIHGEEDYRCPIEQAEQFYVALKMQGVPTTLVRYQGDSHEHARRGKPKNMIDRLKTKLEWFSKYLL
notes: native enzyme purified from S. solfataricus P2 cells; full length 591 aa, not processed; N-terminus MKPEDYYYSI; 64 kDa by SDS-PAGE; homotrimer 192 kDa
One may read the Km as the concentration of substrate that gives half-maximal velocity. In general, kcat refers to the number of substrate molecules converted per active site and unit of time at saturation. As usually defined, the kcat/Km is the turnover number divided by the Michaelis constant. Take B1: the Km in “purified protein [4]” amounted to 600 ± 50 µM; in the data set “purified protein [5]”, 800 ± 60 µM; in the data set “purified protein [6]” it was 40 µM. In addition, the kcat was found to be 18 ± 0.1 s⁻¹ in the data set “purified protein [4]”, 14 ± 0.1 s⁻¹ in the data set “purified protein [5]” and 0.08 ± 0.005 s⁻¹ in “purified protein [6]”. Besides, the kcat/Km is 32700 ± 400 M⁻¹ s⁻¹ in the data set “purified protein [4]”, 17500 ± 100 M⁻¹ s⁻¹ in the data set “purified protein [5]” and 2000 ± 10 M⁻¹ s⁻¹ in the data set “purified protein [6]”.

B2: SsCEI (Sulfolobus solfataricus chymotrypsin-elastase inhibitor) (natural protein)
chain: MNSESIYSMRVVSSAFKNEDFIPIKYTCDGQDLSPELEWDLVTNAKSYAIIVEDPDAPGGTFIHWVIYNITTNRLPEGVPRLYKSQYGVQGVNDFGNIGYNGPCPPKTHPPHRYYFYVYAIDTILLEIKNINADKLKSLMEGHGIERGFVMGKYKRK
In data set [7], B2 displayed an IC50 of inhibition of APEH-3Ss activity on Ac-L-pNA (0.2 mM); protease pre-incubated with increasing SsCEI for 30 min at 80°C, Tris-HCl 50 mM pH 7.5 of 0.008 µM and an IC50 of inhibition of APEH-3Ss activity on Suc-GGF-pNA (0.2 mM); protease pre-incubated with increasing SsCEI for 30 min at 80°C, Tris-HCl 50 mM pH 7.5 of 0.02 µM.
